In US20190040115A1 (IMMATICS BIOTECHNOLOGIES, published 2019):

Target: T1, HLA-A*02:01 (human)
T1 construct: captured on streptavidin plates; also called peptide-receptive MHC molecules
Assay: UV peptide exchange ELISA (anti-b2m); yield grade: + >10%, ++ >20%, +++ >50, ++++ >75%
Description: Candidate peptides for T cell based therapies according to the present invention were further tested for their MHC binding capacity (affinity). The individual peptide-MHC complexes were produced by UV-ligand exchange, where a UV-sensitive peptide is cleaved upon UV-irradiation, and exchanged with the peptide of interest as analyzed. Only peptide candidates that can effectively bind and stabilize the peptide-receptive MHC molecules prevent dissociation of the MHC complexes. To determine the yield of the exchange reaction, an ELISA was performed based on the detection of the light chain (β2m) of stabilized MHC complexes. The assay was performed as generally described in Rodenko et al. (Rodenko et al., 2006).
96 well MAXISorp plates (NUNC) were coated over night with 2 ug/ml streptavidin in PBS at room temperature, washed 4× and blocked for 1 h at 37° C. in 2% BSA containing blocking buffer. Refolded HLA-A*02:01/MLA-001 monomers served as standards, covering the range of 15-500 ng/ml. Peptide-MHC monomers of the UV-exchange reaction were diluted 100 fold in blocking buffer. Samples were incubated for 1 h at 37° C., washed four times, incubated with 2 ug/ml HRP conjugated anti-β2m for 1 h at 37° C., washed again and detected with TMB solution that is stopped with […]. Absorption was measured at 450 nm. Candidate peptides that show a high exchange yield (preferably higher than 50%, most preferred higher than 75%) are generally preferred for a generation and production of antibodies or fragments thereof, and/or T cell receptors or fragments thereof, as they show sufficient avidity to the MHC molecules and prevent dissociation of the MHC complexes.

Binder: KLFTQIFGV
- peptide exchange yield: > 75%

Binder: SIIPPLFTV
- peptide exchange yield: > 75%

Binder: TLYEQEIEV
- peptide exchange yield: > 75%

Binder: LLKDSIVQL
- peptide exchange yield: 50 to 75%

Binder: LLPELRDWGV
- peptide exchange yield: 50 to 75%

Binder: SLADVVDTL
- peptide exchange yield: > 75%

Binder: ALEPIDITV
- peptide exchange yield: 50 to 75%

Binder: LLYEDIPDKV
- peptide exchange yield: 50 to 75%

Binder: EVVDKINQV
- peptide exchange yield: 10 to 20%

Binder: VLLGENVEL
- peptide exchange yield: 50 to 75%

Binder: VQIGDIVTV
- peptide exchange yield: > 75%

Binder: TLLHFLAEL
- peptide exchange yield: > 75%

Binder: FLDSEVSEL
- peptide exchange yield: 50 to 75%

Binder: NMMSGISSV
- peptide exchange yield: 50 to 75%

Binder: IAAGIFNDL
- peptide exchange yield: 10 to 20%

Binder: TLLEGLTEL
- peptide exchange yield: 50 to 75%

Binder: ALDEPTTNL
- peptide exchange yield: 50 to 75%

Binder: KLAEALYIA
- peptide exchange yield: 50 to 75%

Binder: ALDDIIYRA
- peptide exchange yield: 50 to 75%

Binder: AIHTAILTL
- peptide exchange yield: 20 to 50%

Binder: FMYNFQLVTL
- peptide exchange yield: 20 to 50%

Binder: YSDDIPHAL
- peptide exchange yield: 20 to 50%

Binder: EVISKLYAV
- peptide exchange yield: 50 to 75%

Binder: SLIDRTIKM
- peptide exchange yield: 50 to 75%

Binder: VLFSSPPVILL
- peptide exchange yield: > 75%

Binder: TLDDIMAAV
- peptide exchange yield: 50 to 75%

Binder: VLMEMSYRL
- peptide exchange yield: 50 to 75%

Binder: FLDHEMVFL
- peptide exchange yield: > 75%

Binder: SLKSKVLSV
- peptide exchange yield: > 75%

Binder: GLFPSNFVTA
- peptide exchange yield: > 75%

Binder: KVSGVILSV
- peptide exchange yield: > 75%

Binder: ALDSGFNSV
- peptide exchange yield: > 75%

Binder: KLKEAVEAI
- peptide exchange yield: 20 to 50%

Binder: SLPRPTPQA
- peptide exchange yield: 50 to 75%

Binder: GLCDSIITI
- peptide exchange yield: > 75%

Binder: KALQFLEEV
- peptide exchange yield: > 75%

Binder: GVVHGVATV
- peptide exchange yield: > 75%

Binder: ALFFQLVDV
- peptide exchange yield: 20 to 50%

Binder: YLDKMNNNI
- peptide exchange yield: > 75%

Binder: KVLGDVIEV
- peptide exchange yield: > 75%

Binder: SVALVIHNV
- peptide exchange yield: > 75%

Binder: VLDSVDVRL
- peptide exchange yield: > 75%

Binder: FLPFLTTEV
- peptide exchange yield: > 75%

Binder: SILDGLIHL
- peptide exchange yield: 50 to 75%

Binder: FLNEDISKL
- peptide exchange yield: 50 to 75%

Binder: VISPHGIASV
- peptide exchange yield: > 75%

Binder: STLHLVLRL
- peptide exchange yield: 50 to 75%

Binder: RLMANPEALKI
- peptide exchange yield: 50 to 75%

Binder: LLDPTNVFI
- peptide exchange yield: > 75%

Binder: RMDEEFTKI
- peptide exchange yield: 50 to 75%

Binder: VLAVLGAVVAV
- peptide exchange yield: 50 to 75%

Binder: ALIEVLQPLI
- peptide exchange yield: > 75%

Binder: KLLAATLLL
- peptide exchange yield: > 75%

Binder: FAYDGKDYIA
- peptide exchange yield: > 75%

Binder: FLDSLIYGA
- peptide exchange yield: > 75%

Binder: FLPAGIVAV
- peptide exchange yield: > 75%

Binder: ILADATAKM
- peptide exchange yield: > 75%

Binder: GLIDLEANYL
- peptide exchange yield: > 75%

Binder: TLLESIQHV
- peptide exchange yield: > 75%

Binder: ALDDISESI
- peptide exchange yield: > 75%

Binder: TLDGNPFLV
- peptide exchange yield: 50 to 75%

Binder: SAAEPTPAV
- peptide exchange yield: 50 to 75%

Binder: ALDDTVLQV
- peptide exchange yield: 50 to 75%

Binder: ILWDTLLRL
- peptide exchange yield: > 75%

Binder: RVAFKINSV
- peptide exchange yield: 50 to 75%

Binder: VVVDPIQSV
- peptide exchange yield: 50 to 75%

Binder: LLEEINHFL
- peptide exchange yield: 50 to 75%
